Source: patent US7932067B2, “Detection, isolation and uses of renalase (monoamine oxidase C)” (Yale University, priority 2004, dated 2011)

Experiments:
[1] = Amine oxidase assay of renalase (Amplex Red Monoamine Oxidase Assay Kit) with amines as substrates; type: biochemical, human; conditions: GST-renalase fusion protein, battery of amines as substrates, 2 mM
Experimental: Enzyme assay of renalase was carried out using an Amplex Red Monoamine Oxidase Assay Kit (Molecular Probes, Cat # A-12214) that provides one-step fluorometric method for the continuous measurement of amine oxidase activity using a fluorescence microplate reader. The assay is based on the detection of H2O2 in a horseradish peroxidase-coupled reaction using 10-acetyl-3,7-dihydroxy-phenoxazine (Amplex Red reagent), a highly sensitive and stable probe for H2O2. Experiments were carried out according to manufacturer's instruction with a final substrate concentration of 2 mM.
Therefore, we tested whether it had oxidase activity using a battery of amines as substrates. Renalase fusion protein in E. Coli was generated by cloning renalase cDNA into a Glutathione-S-Transferase (GST)-1-containing pGEX expression vector using the GST Gene Fusion System. […] Its enzymatic activity was unaffected by inhibitors of the FAD-containing amine oxidases, MAO-A and MAO-B (FIG. 4b).
We subsequently tested whether renalase has an oxidase activity using a battery of amines as substrates. […] Thus, it can be concluded that renalase is novel protein that metabolizes dopamine, norepinephrine and epinephrine.

nephrectomized rats [2] = experiment: Intervention model for chronic renal failure (rat remnant kidney model); type: in vivo; conditions: nephrectomized rats, 10, 100, 500 microgram/kg SQ twice per day, 4-8 weeks
Description: (§1) A rat partial (5/6) nephrectomy or rat remnant kidney model can be used as described (Wada, M et al; J Clin Invest 1997 Dec. 15; 100(12):2977-83). Male rats (2-3 months old, weighing about 150-200 g) are subjected to unilateral nephrectomy (either left or right kidney) first. A 2.0 cm skin incision is made in the ventral midline, with its cranial terminus 1.0 cm caudal to the xyphoid process. A 2.0 cm muscle incision is made along the midline. The right kidney is isolated and cleared of surrounding fat and connective tissue to clearly view the renal artery and vein, and ureter as they enter the hilus of the kidney. Care is exercised to minimize disturbance of the adrenal gland. A ligature (3/0 silk) is placed around the renal artery, vein and ureter. These vessels are then cut proximal to the kidney and the kidney is removed, taking care that the adrenal gland is not disturbed. The second step of the surgical procedure involves the removal of the 2/3 of the remaining kidney in 7-10 days after the first step. Plasma creatinine (Cr) and BUN levels rise dramatically due to the loss of renal mass and function. Over the next several weeks, plasma Cr and BUN levels of surviving animals decline somewhat toward normal values but remain elevated. Renal function then appears to remain relatively constant or stable for a period of variable duration. […]

Sprague Dawley rats = experiment: Hemodynamics measurements after bolus intravenous injection of recombinant renalase; type: in vivo, rat
Experimental: Sprague Dawley rats (150-250 g) were anesthetized with inactin (100 mg/kg). A catheter (PE-240) was placed in the trachea for airway protection and in the left jugular vein (PE-50) for intravenous infusion of a maintenance fluid solution consisting of normal saline with 6.25% bovine albumin, at a rate of 1.5 ml per 100 g body wt per hour. Core temperature was monitored through a rectal thermometer and body temperature was maintained at 37° C. using a heating pad. Arterial pressure and heart rate were continuously monitored through a PE-50 catheter inserted in the left carotid artery and connected to a pressure transducer (ADInstruments, CO, USA). Hemodynamic recordings were digitized, stored and analyzed using a PowerLab/8SP data acquisition system (ADIntruments). The rats were allowed 1 h to recover after completion of the surgical procedure, and the subsequent 30 minutes served as a control period. The experimental group then received a bolus intravenous injection of 0.5 mg of recombinant renalase in 0.5 ml PBS. The control group was injected with either 0.5 mg BSA or 0.5 mg recombinant glutathione transferase in 0.5 ml of PBS. Blood pressure and heart rate were continuously measured and recorded.
Blood pressure is a function of cardiac output and peripheral vascular resistance, and is regulated by the sympathetic nervous system. Circulating catecholamines control heart rate, myocardial contractility, and the tone of resistance vessels. Since renalase circulates in blood and degrades catecholamines, we examined its in vivo effect on hemodynamic parameters. Within 30 seconds of a single bolus intravenous injection of recombinant renalase, systolic, diastolic and mean arterial pressure decreased by 23.5±1.3, 32.6±2.9 and 28.9±2.7% respectively, (n=4, p<0.001). […] Heart rate remained unchanged initially, and decreased slightly (6.4%) by 60 min, (FIG. 7A, lower panel). In control studies, blood pressure and heart rate were unaffected by either albumin or GST infusion (FIG. 7B). […] Alternatively, renalase could bind to a cognate receptor and modulate myocardial contractility and vascular resistance directly.

nephrectomized rats [3] = experiment: Prophylactic model for chronic renal failure (rat remnant kidney model); type: in vivo; conditions: 100 microgram/kg SQ twice per day, 8-9 weeks
Description: as §1

[4] = rat, nadir between 60-90 minutes after injection, n=4, p<0.01
[5] = rat, within 30 seconds of single bolus iv injection, 0.5 mg, n=4, p<0.001

- rank order potency of catecholamine metabolism [1]: dopamine>epinephrine>norepinephrine
B1: Renalase: novel FAD-dependent monoamine oxidase secreted by the kidney that metabolizes dopamine, norepinephrine and epinephrine; SEQ ID NO: 2 (protein, listed as Homo sapiens)
chain: MAQVLIVGAGMTGSLCAALLRRQTSGPLYLAVWDKADDSGGRMTTACSPHNPQCTADLGAQYITCTPHYAKKHQRFYDELLAYGVLRPLSSPIEGMVMKEGDCNFVAPQGISSIIKHYLKESGAEVYFRHRVTQINLRDDKWEVSKQTGSPEQFDLIVLTMPVPEILQLQGDITTLISECQRQQLEAVSYSSRYALGLFYEAGTKIDVPWAGQYITSNPCIRFVSIDNKKRNIESSEIGPSLVIHTTVPFGVTYLEHSIEDVQELVFQQLENILPGLPQPIATKCQKWRHSQVTNAAANCPGQMTLHHKPFLACGGDGFTQSNFDGCITSALCVLEALKNYI
- expected treatment benefit to Nx rats (plasma BUN, Cr) (nephrectomized rats [2]): slow down chronic renal failure progression
- Arterial elastance (Sprague Dawley rats; Table 1, renalase vs control 0.94 ± 0.09, n=3, NS): 0.8 ± 0.04 mmHg/uL
- End diastolic pressure (Sprague Dawley rats; Table 1, renalase vs control 11.3 ± 1.8, n=5, NS): 9.3 ± 1.5 mmHg
- Cardiac Output (Sprague Dawley rats; Table 1, renalase vs control 45.8 ± 2.8, n=3, p<0.03): 33.2 ± 1.5 mL/min
- Mean Arterial Pressure (Sprague Dawley rats; Table 1, renalase vs control 106.4 ± 4.7, n=8, p<0.0001): 65.3 ± 3.5 mmHg
- End systolic pressure (Sprague Dawley rats; Table 1, renalase vs control 127.7 ± 8.1, n=5, p<0.004): 92.7 ± 2.7 mmHg
- Heart rate (Sprague Dawley rats; Table 1, renalase vs control 342 ± 6, n=5, p<0.004): 304 ± 9 beats/min
- Systemic vascular resistance (Sprague Dawley rats; Table 1, renalase vs control 2323 ± 196, n=3, NS): 1966 ± 183 mmHg/L/min
- dP/dt (Sprague Dawley rats; Table 1, renalase vs control 8604 ± 728, n=5, p<0.001): 5235 ± 442 mmHg/sec
- decrease in heart rate (Sprague Dawley rats; rat, by 60 min after injection): 6.4%
- heart rate, initial response (Sprague Dawley rats; rat, initially after bolus iv injection): unchanged
- diastolic arterial pressure lower than baseline at nadir (Sprague Dawley rats; [4]): 14.3±1.2%
- mean arterial pressure lower than baseline at nadir (Sprague Dawley rats; [4]): 14.8±1.1%
- systolic arterial pressure lower than baseline at nadir (Sprague Dawley rats; [4]): 16.5±1.5%
- time to recovery of blood pressure after initial fall (Sprague Dawley rats; rat, single bolus iv injection): ≤ 2 min
- decrease in diastolic arterial pressure (Sprague Dawley rats; [5]): 32.6±2.9%
- decrease in mean arterial pressure (Sprague Dawley rats; [5]): 28.9±2.7%
- decrease in systolic arterial pressure (Sprague Dawley rats; [5]): 23.5±1.3%
- expected effect on initiation of chronic renal failure (plasma BUN, Cr) (nephrectomized rats [3]): prevent, inhibit or delay the initiation of chronic renal failure
